How the values were obtained:
[1] = tested on: rat insulinoma beta-cells (INS-1); test: Cell viability of INS-1 beta-cells exposed to free fatty acids (MTT assay); assay type: cell-based; conditions: 48 hours, FGF21 compound = F1 50 nM, GLP-1 compound = G1 50 nM, mean +/- SEM
Method: (§1) This ex vivo example investigates the influence of FGF21 and GLP-1 compounds on FFA (free fatty acid) induced apoptosis of rat insulinoma beta-cells (INS-1).
(§2) Compound F1 (Prospec, cat. no. CYT-474) was used as the FGF21 compound, and compound G1 was used as the GLP-1 compound.
(§3) INS-1 cells were seeded in 96-well plates (50000 cells/well) and incubated overnight in cell medium (RPMI 1640 medium (Gibco, cat. no. 61870-010), supplemented with 10% FCS (Gibco, cat. no. 10085-140), 1% Pen/Strep (Gibco, cat. no. 15140-114) and 0.5 ml beta-mercaptoethanol (Gibco, cat. no. 31350-010 (50 mM)). The FGF21 compound (50 nM) and the GLP-1 compound (50 nM) were added to the cells 1 hour before the cells were to be exposed to FFA. The FFA's were prepared as follows: Stock solutions of palmitic acid (Sigma P5585) and oleic acid (Sigma 01383) of 1M in DMSO were mixed 1:2 and heated to 60 degree Celsius. The FFA mix was then diluted 10 times in 0.1M NaOH. This mixture was then further diluted in cell medium to yield a FFA concentration of 1 mM. The FFAs were then added to the cells to a final concentration of 0.35 mM. […]

[2] = tested on: rat insulinoma beta-cells (INS-1); test: FFA induced apoptosis of INS-1 beta-cells (Caspase-3/7 assay); assay type: cell-based; conditions: 48 hours, FGF21 compound = F1 50 nM, GLP-1 compound = G1 50 nM, mean +/- SEM
Method: as §1, §2, §3

db/db mice = test: Effect on blood glucose in vivo, subchronic study in db/db mice; conditions: F1 0.5 mg/kg, G1 30 nmol/kg or both
Method: This subchronic in vivo dosing study investigates the effect of GLP-1 and FGF21 compounds on blood glucose. The study was performed in db/db mice (as described in Example 5).
48 db/db mice, male, 11-12 weeks of age at study start.
Dosed subcutaneously 2 × daily with either (i) 0.5 mg/kg human FGF21 (compound F1; n=12); (ii) 30 nmol/kg of GLP-1 compound G1 (n=12); (iii) a combination of 0.5 mg/kg of compound F1 and 30 nmol/kg of compound G1 (n=12); or (iv) vehicle (sterile PBS buffer, n=12).
All groups were dosed for 21 days.
Blood samples of 10 μl were taken from the tip of the tail for blood glucose measurements once weekly.

B1: Met-FGF21_human (protein, listed as Homo sapiens)
chain: HPIPDSSPLLQFGGQVRQRYLYTDDAQQTEAHLEIREDGTVGGAADQSPESLLQLKALKPGVIQILGVKTSRFLCQRPDGALYGSLHFDPEACSFRELLLEDGYNVYQSEAHGLPLHLPGNKSPHRDPAPRGPARFLPLPGLPPALPEPPGILAPQPPDVGSSDPLSMVGPSQGRSPSYAS
modifications: N-terminal Met; mat_peptide (1)..(181); DISULFID (75)..(93)
Cell viability (MTT assay, A550) ([1]; FFA 0.00 mM): 1.19 +/− 0.05
Cell viability (MTT assay, A550) ([1]; FFA 0.35 mM): 0.28 +/− 0.01
Apoptosis (Caspase 3/7 assay, fluorescense) ([2]; FFA 0.00 mM): 1827 +/− 22
Apoptosis (Caspase 3/7 assay, fluorescense) ([2]; FFA 0.35 mM): 33278 +/− 1254
Blood glucose (db/db mice; Day 0, s.c. 2 × daily): 19.9 ± 1.2 mmol/L
Blood glucose (db/db mice; Day 7, s.c. 2 × daily): 17.2 ± 1.3 mmol/L
Blood glucose (db/db mice; Day 14, s.c. 2 × daily): 16.2 ± 1.8 mmol/L
Blood glucose (db/db mice; Day 21, s.c. 2 × daily): 19.2 ± 3.0 mmol/L

— US20120172298A1, “GLP-1 AND FGF21 COMBINATIONS FOR TREATMENT OF DIABETES TYPE 2” (Novo Nordisk A/S, priority 2009, published 2012)
